Assay results: patent US20110263454A1, “Methods of Identifying Functional Characteristics of Promoters, Transcription Modifying Proteins and Transcription Modulating Agents” (Salk Institute for Biological Studies, priority 2008, published 2011)

B1: HNF4a: Hepatocyte Nuclear Factor α (NR2A1), cDNA driver (protein, UniProt P41235 1-474, looked up)
Hepatocyte nuclear factor …: MRLSKTLVDMDMADYSAALDPAYTTLEFENVQVLTMGNDTSPSEGTNLNAPNSLGVSALCAICGDRATGKHYGASSCDGCKGFFRRSVRKNHMYSCRFSRQCVVDKDKRNQCRYCRLKKCFRAGMKKEAVQNERDRISTRRSSYEDSSLPSINALLQAEVLSRQITSPVSGINGDIRAKKIASIADVCESMKEQLLVLVEWAKYIPAFCELPLDDQVALLRAHAGEHLLLGATKRSMVFKDVLLLGNDYIVPRHCPELAEMSRVSIRILDELVLPFQELQIDDNEYAYLKAIIFFDPDAKGLSDPGKIKRLRSQVQVSLEDYINDRQYDSRGRFGELLLLLPTLQSITWQMIEQIQFIKLFGMAKIDNLLQEMLLGGSPSDAPHAHHPLHPHLMQEHMGTNVIVANTMPTHLSNGQMCEWPRPRGQAATPETPQPSPPGGSGSEPYKLLPGAVATIVKPLSAIPQPTITKQEVI
B2: LXRb: Liver X Receptor β (NR1H2), cDNA driver (protein, UniProt P55055 1-460, looked up)
Oxysterols receptor LXR-beta: MSSPTTSSLDTPLPGNGPPQPGAPSSSPTVKEEGPEPWPGGPDPDVPGTDEASSACSTDWVIPDPEEEPERKRKKGPAPKMLGHELCRVCGDKASGFHYNVLSCEGCKGFFRRSVVRGGARRYACRGGGTCQMDAFMRRKCQQCRLRKCKEAGMREQCVLSEEQIRKKKIRKQQQESQSQSQSPVGPQGSSSSASGPGASPGGSEAGSQGSGEGEGVQLTAAQELMIQQLVAAQLQCNKRSFSDQPKVTPWPLGADPQSRDARQQRFAHFTELAIISVQEIVDFAKQVPGFLQLGREDQIALLKASTIEIMLLETARRYNHETECITFLKDFTYSKDDFHRAGLQVEFINPIFEFSRAMRRLGLDDAEYALLIAINIFSADRPNVQEPGRVEALQQPYVEALLSYTRIKRPQDQLRFPRMLMKLVSLRTLSSVHSEQVFALRLQDKKLPPLLSEIWDVHE
B3: RORa: RAR-related Orphan Receptor α (NR1F1), cDNA driver (protein, UniProt P35398 1-523, looked up)
Nuclear receptor ROR-alpha: MESAPAAPDPAASEPGSSGADAAAGSRETPLNQESARKSEPPAPVRRQSYSSTSRGISVTKKTHTSQIEIIPCKICGDKSSGIHYGVITCEGCKGFFRRSQQSNATYSCPRQKNCLIDRTSRNRCQHCRLQKCLAVGMSRDAVKFGRMSKKQRDSLYAEVQKHRMQQQQRDHQQQPGEAEPLTPTYNISANGLTELHDDLSNYIDGHTPEGSKADSAVSSFYLDIQPSPDQSGLDINGIKPEPICDYTPASGFFPYCSFTNGETSPTVSMAELEHLAQNISKSHLETCQYLREELQQITWQTFLQEEIENYQNKQREVMWQLCAIKITEAIQYVVEFAKRIDGFMELCQNDQIVLLKAGSLEVVFIRMCRAFDSQNNTVYFDGKYASPDVFKSLGCEDFISFVFEFGKSLCSMHLTEDEIALFSAFVLMSADRSWLQEKVKIEKLQQKIQLALQHVLQKNHREDGILTKLICKVSTLRALCGRHTEKLMAFKAIYPDIVRLHFPPLYKELFTSEFEPAMQIDG

Legend:
hCAR promoter = test: NHR-promoter luciferase screen, hCAR promoter; assay type: cell-based, human; settings: for luciferase activity normalized to lacZ activity and to a control, hCAR: hCAR promoter-luciferase, CV-1 cells, NHR +/- ligand, control = 1.00; for Luc. act., normalized to lacZ / Normalized Luc. act., normalized to control: hCAR promoter, HR/ligand component
Procedure: (§1) The use, feasibility, and reproducibility of the functional NHR-promoter screen in a 48-well format have been tested validated. Briefly, there were co-expressed 50 ng of each NHR/NHR homodimer or NHR/RXR heterodimer with 100 ng promoter/luciferase construct and 50 ng of LacZ (as a control for transfection efficiency) in CV-1 cells using Fugene HD (Roche) as a transfection reagent (alternatively or additionally, a CMV-YFP construct can be used as a transfection control). Each of the nuclear hormone receptors that were used in these experiments was cloned into a pcDNA3.1 vector and comprised a C-terminally linked V5H6 tag. Twenty-four hours after transfection, appropriate ligands were added, where applicable, (see Table 5 for various ligands and concentrations and after 48 hrs, samples were assayed for luciferase and LacZ activity. To measure for luciferase activity 15 ul of sample was added to 30 ul of luciferase buffer (20 mM tricine, 1.07 mM MgCarbonate, 2.67 mM MgSulfate, 0.1 mM Naz-EDTA, 5 mM DTT, 5 mM ATP, 0.15 mg/ml CoA, 0.5 mM Luciferin), mixed briefly, and run in a Perkin Elmer Victor 5 luminometer. Thus, the functional NHR-promoter screen was used to observe the transcriptional activity of 29 promoters from various physiological pathways including inflammation, lipid and sugar metabolism, cholesterol transport, xenobiotic metabolism, and circadian rhythm.
(§2) The promoters that facilitate transcription of the indicated gene products that were tested using the protocols described herein are listed in the first row of the table. The nuclear hormone receptors and, where applicable, ligands that were assayed for their transcriptional effects on the promoters are listed in the first column of the table. The data represent the luciferase activity of each sample normalized to both the lacZ activity of that sample and to a control, e.g., no NHR or ligand, as customary in the art. As described previously, these normalizations allow the transcriptional activity of each reporter cell to be compared to other samples.
(§3) Tables 7-40 show the transcriptional effects of the hormone receptors, and, where applicable, ligands (orphan receptors are screened without ligand), on each individual promoter. […] The control data of each table are shown in their last rows.

mLeptin promoter = test: NHR-promoter luciferase screen, mLeptin promoter; assay type: cell-based, mouse; settings: for Luc. act., normalized to lacZ / Normalized Luc. act., normalized to control: Table 7, mLeptin; for Results of assays of transcription factor (+/- ligand) with mLeptin: Table 6d, luciferase activity relative to control (control = 1.00)
Procedure: as §1, §2, §3

mNPY promoter = test: NHR-promoter luciferase screen, mNPY promoter; assay type: cell-based, mouse; settings: for Results of assays of transcription factor (+/- ligand) with mNPY: Table 6d, luciferase activity relative to control (control = 1.00); for Luc. act., normalized to lacZ / Normalized Luc. act., normalized to control: mNPY promoter, HR component with or without ligand; for Normalized Luc. act., normalized to control: relative to control
Procedure: as §1, §2, §3

mUCP3 promoter = test: NHR-promoter luciferase screen, mUCP3 promoter; assay type: cell-based, mouse; settings: for Normalized Luc. act., normalized to control / Luc. act., normalized to lacZ: mUCP3 promoter reporter; for Normalized Luc. act., normalized to control: HR without or with its ligand, relative to control; for Luc. act., normalized to lacZ: hormone receptor (HR) without or with its ligand; for mUCP3 promoter reporter activity: transcription factor +/- ligand, control = 1.00
Procedure: as §1, §2, §3

mAdiponectin promoter = test: NHR-promoter luciferase screen, mAdiponectin promoter; assay type: cell-based, mouse; settings: for Luc. act., normalized to lacZ / Normalized Luc. act., normalized to control: Adiponectin, HR component without or with its ligand; for mAdiponectin promoter reporter activity: transcription factor +/- ligand, control = 1.00
Procedure: as §1, §2, §3

mABCA1 promoter = test: NHR-promoter luciferase screen, mABCA1 promoter; assay type: cell-based, mouse; settings: for Luc. act., normalized to lacZ / Normalized Luc. act., normalized to control: ABCA1 promoter, hormone receptor with or without its ligand; for Normalized Luc. act., normalized to control: relative to control; for mABCA1 promoter reporter activity: transcription factor +/- ligand, control = 1.00
Procedure: as §1, §2, §3

| Molecule | luciferase activity normalized to lacZ activity and to a control, hCAR (hCAR promoter) | Luc. act., normalized to lacZ (hCAR promoter) | Normalized Luc. act., normalized to control (hCAR promoter) | Luc. act., normalized to lacZ (mLeptin promoter) | Normalized Luc. act., normalized to control (mLeptin promoter) | Results of assays of transcription factor (+/- ligand) with mLeptin (mLeptin promoter) | Results of assays of transcription factor (+/- ligand) with mNPY (mNPY promoter) | Luc. act., normalized to lacZ (mNPY promoter) | Normalized Luc. act., normalized to control (mNPY promoter) | Normalized Luc. act., normalized to control (mUCP3 promoter) | Luc. act., normalized to lacZ (mUCP3 promoter) | mUCP3 promoter reporter activity (mUCP3 promoter) | Luc. act., normalized to lacZ (mAdiponectin promoter) | Normalized Luc. act., normalized to control (mAdiponectin promoter) | mAdiponectin promoter reporter activity (mAdiponectin promoter) | Luc. act., normalized to lacZ (mABCA1 promoter) | Normalized Luc. act., normalized to control (mABCA1 promoter) | mABCA1 promoter reporter activity (mABCA1 promoter) |
| --- | --- | --- | --- | --- | --- | --- | --- | --- | --- | --- | --- | --- | --- | --- | --- | --- | --- | --- |
| TLX: Tailless (homolog of drosophila) (NR2E1), cDNA driver | 0.56 | 17.6 | 0.6 | 2.6 | 0.9 | 0.89 | 1.11 | 93.5 | 1.1 | 1.1 | 0.8 | 1.11 | 78.4 | 1.2 | 1.25 | 21.8 | 3.9 | 3.88 |
| LXRa: Liver X Receptor α (NR1H3), cDNA driver | 1.87 | 58.9 | 1.9 | 1.9 | 0.7 | 0.65 | 0.67 | 56.2 | 0.7 | 1.6 | 1.1 | 1.58 | 60.7 | 1.0 | 0.97 | 93.0 | 16.6 | 16.56 |
| B1 | 15.62 | 493.6 | 15.6 | 2.5 | 0.8 | 0.84 | 0.52 | 43.5 | 0.5 | 1.1 | 0.7 | 1.06 | 25.4 | 0.4 | 0.40 | 10.7 | 1.9 | 1.90 |
| B2 | 1.44 | 45.5 | 1.4 | 2.4 | 0.8 | 0.81 | 0.81 | 68.0 | 0.8 | 1.7 | 1.2 | 1.73 | 61.7 | 1.0 | 0.98 | 46.3 | 8.3 | 8.25 |
| B3 | 0.58 | 18.2 | 0.6 | 2.1 | 0.7 | 0.71 | 0.90 | 75.4 | 0.9 | 2.6 | 1.7 | 2.56 | 80.0 | 1.3 | 1.27 | 33.0 | 5.9 | 5.87 |
